Source: paper PMC5910400 (2018)
Positions count from the first letter of the chain named.

How the values were obtained:
Experiment in all cases: BLI
[1] = target: T1, CCL27 (Homo sapiens)
T1 chain: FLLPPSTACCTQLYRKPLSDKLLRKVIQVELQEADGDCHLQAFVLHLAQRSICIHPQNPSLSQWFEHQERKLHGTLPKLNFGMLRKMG

[2] = target: T2, CCL24 (Homo sapiens)
T2 chain: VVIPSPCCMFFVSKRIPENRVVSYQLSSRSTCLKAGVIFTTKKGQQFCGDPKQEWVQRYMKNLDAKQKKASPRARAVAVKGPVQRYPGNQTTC

[3] = target: T3, CCL22 (human, UniProt O00626 25-93)
T3 chain: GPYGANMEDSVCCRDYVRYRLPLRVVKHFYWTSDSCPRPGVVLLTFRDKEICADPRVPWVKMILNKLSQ

[4] = target: T4, CCL3L1 (human, UniProt P16619 24-93)
T4 chain: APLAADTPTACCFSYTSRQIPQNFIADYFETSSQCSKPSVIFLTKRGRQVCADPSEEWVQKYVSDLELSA

[5] = target: CCL7 (human, UniProt P80098 24-99)
CCL7, sequence (P80098 24-99): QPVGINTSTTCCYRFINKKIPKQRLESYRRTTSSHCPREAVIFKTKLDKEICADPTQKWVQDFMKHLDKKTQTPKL

[6] = target: T5, CCL8 (Homo sapiens)
T5 chain: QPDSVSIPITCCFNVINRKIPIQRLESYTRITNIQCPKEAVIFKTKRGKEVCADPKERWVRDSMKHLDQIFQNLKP

[7] = target: T6, CCL4L1 (Homo sapiens)
T6 chain: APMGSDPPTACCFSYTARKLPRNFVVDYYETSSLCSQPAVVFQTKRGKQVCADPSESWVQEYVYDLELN

[8] = target: CCL11 (Homo sapiens)
CCL11 (Homo sapiens), sequence (chain, as listed by the source): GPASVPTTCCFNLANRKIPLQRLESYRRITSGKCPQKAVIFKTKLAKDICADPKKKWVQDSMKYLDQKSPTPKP

[9] = target: CCL13 (human, UniProt Q99616 24-98)
CCL13, sequence (Q99616 24-98): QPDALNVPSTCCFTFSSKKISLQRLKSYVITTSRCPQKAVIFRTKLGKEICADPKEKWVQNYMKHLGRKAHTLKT

[10] = target: T7, CCL5 (human, UniProt P13501 24-91)
T7 chain: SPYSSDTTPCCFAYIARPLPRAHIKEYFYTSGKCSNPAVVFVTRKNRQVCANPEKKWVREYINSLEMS

[11] = target: T8, CCL21 (human, UniProt O00585 24-134)
T8 chain: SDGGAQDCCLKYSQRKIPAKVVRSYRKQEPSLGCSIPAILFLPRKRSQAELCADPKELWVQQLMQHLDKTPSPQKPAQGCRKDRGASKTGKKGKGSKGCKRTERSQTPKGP

[12] = target: T9, CCL17 (Homo sapiens)
T9 chain: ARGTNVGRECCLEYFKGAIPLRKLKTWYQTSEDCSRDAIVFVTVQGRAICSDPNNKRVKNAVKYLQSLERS

[13] = target: T10, CCL19 (Homo sapiens)
T10 chain: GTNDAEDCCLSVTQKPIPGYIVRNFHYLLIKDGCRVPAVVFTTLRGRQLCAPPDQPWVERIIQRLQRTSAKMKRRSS

[14] = target: T11, CCL3 (human, UniProt P10147 24-92)
T11 chain: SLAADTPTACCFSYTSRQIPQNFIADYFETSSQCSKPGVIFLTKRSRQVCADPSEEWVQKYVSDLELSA

[15] = target: T12, CCL16 (Homo sapiens)
T12 chain: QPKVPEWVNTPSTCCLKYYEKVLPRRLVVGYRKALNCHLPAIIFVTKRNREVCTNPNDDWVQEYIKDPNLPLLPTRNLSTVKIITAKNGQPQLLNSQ

[16] = target: T13, CCL4 (Homo sapiens)
T13 chain: T6 chain with G47S

[17] = target: T14, CCL14 (Homo sapiens)
T14 chain: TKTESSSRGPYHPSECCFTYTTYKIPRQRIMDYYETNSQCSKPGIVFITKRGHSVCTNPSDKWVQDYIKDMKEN

[18] = target: T15, CCL1 (human, UniProt P22362 24-96)
T15 chain: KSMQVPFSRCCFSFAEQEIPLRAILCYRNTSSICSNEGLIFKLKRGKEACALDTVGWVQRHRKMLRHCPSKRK

[19] = target: T16, CCL18 (Homo sapiens)
T16 chain: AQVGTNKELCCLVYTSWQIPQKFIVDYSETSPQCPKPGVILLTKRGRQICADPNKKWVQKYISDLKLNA

[20] = target: T17, CCL23 (human, UniProt P55773 22-120)
T17 chain: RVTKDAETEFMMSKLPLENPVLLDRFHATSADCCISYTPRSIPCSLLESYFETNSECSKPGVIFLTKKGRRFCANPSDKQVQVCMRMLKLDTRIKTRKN

[21] = target: T18, CCL15 (Homo sapiens)
T18 chain: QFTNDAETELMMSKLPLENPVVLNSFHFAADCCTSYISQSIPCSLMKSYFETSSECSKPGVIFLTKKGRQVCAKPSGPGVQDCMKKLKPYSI

B1: P1243 (evasin from Amblyomma americanum), purified, C-terminal StrepII:8xHis tag (natural protein)
chain: ETGRNHTEDNSTEYYDYEEARCACPARHLNNTNGTVLKLLGCHYFCNGTLCTAPDGYPCYNLTAQQVRTLTTYPNTSCAVGVCMKGTCVKNGTMEQCFKTP
B1 was tested, and the Kd [1] was 24 nM, the Kd [2] was 13 nM and the Kd [3] was 13 nM. It also gave a Kd [4] of 8.97 nM, a Kd [5] of 49.3 nM and a Kd [6] of 56.3 nM. It also gave a Kd [7] of 15.7 nM, a Kd [8] of 6.69 nM and a Kd [9] of 1.4 nM. The Kd [10] was 3.79 nM, the Kd [11] was 26 nM and the Kd [12] was 6.1 nM. The Kd [13] was 3.9 nM, the Kd [14] was 35.5 nM and the Kd [15] was 1.3 nM. The Kd [16] was 12.2 nM, the Kd [17] was 4.33 nM and the Kd [18] was 20 nM. It also gave a Kd [19] of 0.663 nM, a Kd [20] of 0.772 nM and a Kd [21] of 9.78 nM.
